Assay: Luminescence of 9B8 opt+K33N derived variants in E. coli
Assay type: biochemical
Protocol: Luminescence generated from the lysates was measured using the novel PBI-3939 and native coelenterazine as substrates. The relative specificity of the variants for PBI-3939 and native coelenterazine was calculated as described previously.
A new OgLuc library was created using 9B8opt+K33N as a starting template. The random library was created using DIVERSIFY® PCR Random Mutagenesis Kit (ClonTech; Catalog #630703). Condition 5 (as listed in the user manual) was used to generate additional variants, and the average mutation rate was calculated to be 2.6 mutations per gene by compiling sequence data from 83 randomly selected clones. This PCR library was cloned into the pF4Ag-based, non-fusion vector background described previously and the sandwich background, i.e., Id-OgLuc-HT7 (described in Example 45). Variants in the pF4Ag-base non-fusion vector background are designated with (NF). Variants in the sandwich vector background are designated with (F). In order to clone the PCR product into both vectors, an amino acid, i.e., a glycine, was appended to the variant sequence in pF4Ag, generating a new position 170 in the OgLuc variant (“170G”). The 170G is present in the sandwich construct, but in this case is considered part of the linker between OgLuc and HT7. For each library, 4,400 E. coli clones were assayed as described previously with the following exceptions. […] The assay buffer contained 100 mM MES pH 6.0 instead of HEPES, and 35 mM thiourea. The assay volumes were as follows: 10 μL cells, 40 μL, lysis buffer, and 50 μL, assay buffer.
E. coli lysates containing the variants were prepared and analyzed as described previously. Luminescence generated from the lysates was measured using the novel PBI-3939 and native coelenterazine as substrates. The luminescence of the variants was normalized to the luminescence generated by 9B8 opt (Table 12). The relative specificity of the variants for PBI-3939 and native coelenterazine was calculated by dividing the luminescence of the variants using PBI-3939 as a substrate with the luminescence of the variants using native coelenterazine as a substrate (Table 12).

B1: L27V: 9B8 opt+K33N variant with L27V, T39T, K43R, Y68D (SEQ ID NO: 89) (protein)
chain: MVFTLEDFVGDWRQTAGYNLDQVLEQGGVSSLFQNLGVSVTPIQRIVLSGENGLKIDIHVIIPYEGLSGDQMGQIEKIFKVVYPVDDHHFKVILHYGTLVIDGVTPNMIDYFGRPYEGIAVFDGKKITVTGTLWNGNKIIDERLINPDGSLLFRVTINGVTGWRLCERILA
- Fold over coelenterazine (luminescence with PBI-3939 divided by luminescence with native coelenterazine, bacterial lysates): 110
- Fold over 9B8 (luminescence with PBI-3939 normalized to 9B8 opt, bacterial lysates): 1.8
- Fold over Native Coelenterazine, E. coli (relative specificity for PBI-3939 compared to native coelenterazine): 85.2

Reference: patent publication US9951373B2, “Oplophorus-derived luciferases, novel coelenterazine substrates, and methods of use” (Promega Corporation, priority 2010, dated 2018)
